{"source": "the supplement of paper PMC9112550", "about": "“Optimization of the antimicrobial peptide Bac7 by deep mutational scanning” (BMC Biology, 2022);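 note: peptides expressed intracellularly from a pBAD plasmid library in pooled LB shake-flask culture, induced with 0.3% L-arabinose, DNA abundance read by NGS, three biological replicates, DESeq2 with apeglm shrinkage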", "data": [{"test_system": "Escherichia coli TOP10", "experiment": "shrunken log2 fold change of peptide-encoding DNA abundance (4.5 h post-induction vs induction); higher = less antimicrobial activity (less host growth inhibition)", "conditions": "time post-induction: 4.5 h; library: site-saturation at positions 5, 18, 19, 20", "values": [{"sequence": "RRIRIRPPRLPRPRPRPSWVPRP", "shrunken log2 fold change": -0.168}, {"sequence": "RRIRIRPPRLPRPRPRPSYDPRP", "shrunken log2 fold change": -0.414}, {"sequence": "RRIRIRPPRLPRPRPRPSYIPRP", "shrunken log2 fold change": -1.04}, {"sequence": "RRIRIRPPRLPRPRPRPTCGPRP", "shrunken log2 fold change": -0.0476}, {"sequence": "RRIRIRPPRLPRPRPRPTELPRP", "shrunken log2 fold change": -0.0944}, {"sequence": "RRIRIRPPRLPRPRPRPTEMPRP", "shrunken log2 fold change": 0.112}, {"sequence": "RRIRIRPPRLPRPRPRPTFHPRP", "shrunken log2 fold change": -0.266}, {"sequence": "RRIRIRPPRLPRPRPRPTGNPRP", "shrunken log2 fold change": -0.626}, {"sequence": "RRIRIRPPRLPRPRPRPTHAPRP", "shrunken log2 fold change": 0.216}, {"sequence": "RRIRIRPPRLPRPRPRPTIIPRP", "shrunken log2 fold change": -0.848}, {"sequence": "RRIRIRPPRLPRPRPRPTIRPRP", "shrunken log2 fold change": -0.995}, {"sequence": "RRIRIRPPRLPRPRPRPTKFPRP", "shrunken log2 fold change": -0.164}, {"sequence": "RRIRIRPPRLPRPRPRPTKSPRP", "shrunken log2 fold change": -0.141}, {"sequence": "RRIRIRPPRLPRPRPRPTLAPRP", "shrunken log2 fold change": 0.236}, {"sequence": "RRIRIRPPRLPRPRPRPTLKPRP", "shrunken log2 fold change": -0.132}, {"sequence": "RRIRIRPPRLPRPRPRPTLRPRP", "shrunken log2 fold change": 0.0906}, {"sequence": "RRIRIRPPRLPRPRPRPTMCPRP", "shrunken log2 fold change": -0.386}, {"sequence": "RRIRIRPPRLPRPRPRPTNFPRP", "shrunken log2 fold change": -0.535}, {"sequence": "RRIRIRPPRLPRPRPRPTPSPRP", "shrunken log2 fold change": 0.0658}, {"sequence": "RRIRIRPPRLPRPRPRPTRGPRP", "shrunken log2 fold change": 0.0292}, {"sequence": "RRIRIRPPRLPRPRPRPTVIPRP", "shrunken log2 fold change": -0.108}, {"sequence": "RRIRIRPPRLPRPRPRPTWIPRP", "shrunken log2 fold change": -0.415}, {"sequence": "RRIRIRPPRLPRPRPRPTWTPRP", "shrunken log2 fold change": 0.398}, {"sequence": "RRIRIRPPRLPRPRPRPVAAPRP", "shrunken log2 fold change": 0.176}, {"sequence": "RRIRIRPPRLPRPRPRPVACPRP", "shrunken log2 fold change": -0.154}, {"sequence": "RRIRIRPPRLPRPRPRPVALPRP", "shrunken log2 fold change": -0.278}, {"sequence": "RRIRIRPPRLPRPRPRPVCGPRP", "shrunken log2 fold change": -0.0405}, {"sequence": "RRIRIRPPRLPRPRPRPVDMPRP", "shrunken log2 fold change": -0.51}, {"sequence": "RRIRIRPPRLPRPRPRPVDPPRP", "shrunken log2 fold change": 0.106}, {"sequence": "RRIRIRPPRLPRPRPRPVEPPRP", "shrunken log2 fold change": -0.115}, {"sequence": "RRIRIRPPRLPRPRPRPVFVPRP", "shrunken log2 fold change": -0.397}, {"sequence": "RRIRIRPPRLPRPRPRPVGGPRP", "shrunken log2 fold change": 0.0792}, {"sequence": "RRIRIRPPRLPRPRPRPVGMPRP", "shrunken log2 fold change": 0.0752}, {"sequence": "RRIRIRPPRLPRPRPRPVHIPRP", "shrunken log2 fold change": -0.155}, {"sequence": "RRIRIRPPRLPRPRPRPVHSPRP", "shrunken log2 fold change": -0.0158}, {"sequence": "RRIRIRPPRLPRPRPRPVIAPRP", "shrunken log2 fold change": -0.388}, {"sequence": "RRIRIRPPRLPRPRPRPVIFPRP", "shrunken log2 fold change": -0.402}, {"sequence": "RRIRIRPPRLPRPRPRPVIVPRP", "shrunken log2 fold change": -0.214}, {"sequence": "RRIRIRPPRLPRPRPRPVLAPRP", "shrunken log2 fold change": -0.0133}, {"sequence": "RRIRIRPPRLPRPRPRPVLPPRP", "shrunken log2 fold change": -0.242}, {"sequence": "RRIRIRPPRLPRPRPRPVLRPRP", "shrunken log2 fold change": -0.0796}, {"sequence": "RRIRIRPPRLPRPRPRPVMFPRP", "shrunken log2 fold change": -0.255}, {"sequence": "RRIRIRPPRLPRPRPRPVNLPRP", "shrunken log2 fold change": -0.116}, {"sequence": "RRIRIRPPRLPRPRPRPVNMPRP", "shrunken log2 fold change": -0.103}, {"sequence": "RRIRIRPPRLPRPRPRPVNNPRP", "shrunken log2 fold change": -0.272}, {"sequence": "RRIRIRPPRLPRPRPRPVNYPRP", "shrunken log2 fold change": -0.0508}, {"sequence": "RRIRIRPPRLPRPRPRPVRFPRP", "shrunken log2 fold change": -0.16}, {"sequence": "RRIRIRPPRLPRPRPRPVRQPRP", "shrunken log2 fold change": -0.0328}, {"sequence": "RRIRIRPPRLPRPRPRPVTEPRP", "shrunken log2 fold change": -0.109}, {"sequence": "RRIRIRPPRLPRPRPRPVVCPRP", "shrunken log2 fold change": -0.000979}, {"sequence": "RRIRIRPPRLPRPRPRPVVFPRP", "shrunken log2 fold change": 0.0165}, {"sequence": "RRIRIRPPRLPRPRPRPVWEPRP", "shrunken log2 fold change": 0.108}, {"sequence": "RRIRIRPPRLPRPRPRPVWFPRP", "shrunken log2 fold change": -0.125}, {"sequence": "RRIRIRPPRLPRPRPRPVWLPRP", "shrunken log2 fold change": 0.0726}, {"sequence": "RRIRIRPPRLPRPRPRPWCCPRP", "shrunken log2 fold change": -0.481}, {"sequence": "RRIRIRPPRLPRPRPRPWDGPRP", "shrunken log2 fold change": -0.094}, {"sequence": "RRIRIRPPRLPRPRPRPWDIPRP", "shrunken log2 fold change": -0.00968}, {"sequence": "RRIRIRPPRLPRPRPRPWEGPRP", "shrunken log2 fold change": -0.152}, {"sequence": "RRIRIRPPRLPRPRPRPWEKPRP", "shrunken log2 fold change": -0.00992}, {"sequence": "RRIRIRPPRLPRPRPRPWFCPRP", "shrunken log2 fold change": -0.322}, {"sequence": "RRIRIRPPRLPRPRPRPWFWPRP", "shrunken log2 fold change": -0.313}, {"sequence": "RRIRIRPPRLPRPRPRPWHKPRP", "shrunken log2 fold change": -0.00213}, {"sequence": "RRIRIRPPRLPRPRPRPWHVPRP", "shrunken log2 fold change": -0.0239}, {"sequence": "RRIRIRPPRLPRPRPRPWIFPRP", "shrunken log2 fold change": -0.498}, {"sequence": "RRIRIRPPRLPRPRPRPWLAPRP", "shrunken log2 fold change": -0.12}, {"sequence": "RRIRIRPPRLPRPRPRPWMIPRP", "shrunken log2 fold change": -0.0493}, {"sequence": "RRIRIRPPRLPRPRPRPWNGPRP", "shrunken log2 fold change": -0.172}, {"sequence": "RRIRIRPPRLPRPRPRPWPAPRP", "shrunken log2 fold change": -0.768}, {"sequence": "RRIRIRPPRLPRPRPRPWQPPRP", "shrunken log2 fold change": -0.0185}, {"sequence": "RRIRIRPPRLPRPRPRPWSGPRP", "shrunken log2 fold change": -0.139}, {"sequence": "RRIRIRPPRLPRPRPRPWSNPRP", "shrunken log2 fold change": -0.0121}, {"sequence": "RRIRIRPPRLPRPRPRPWTDPRP", "shrunken log2 fold change": -0.111}, {"sequence": "RRIRIRPPRLPRPRPRPWVAPRP", "shrunken log2 fold change": -0.00986}, {"sequence": "RRIRIRPPRLPRPRPRPWVQPRP", "shrunken log2 fold change": -0.0105}, {"sequence": "RRIRIRPPRLPRPRPRPWVRPRP", "shrunken log2 fold change": 0.0146}, {"sequence": "RRIRIRPPRLPRPRPRPWWEPRP", "shrunken log2 fold change": -0.109}, {"sequence": "RRIRIRPPRLPRPRPRPWWGPRP", "shrunken log2 fold change": 0.0378}, {"sequence": "RRIRIRPPRLPRPRPRPWWKPRP", "shrunken log2 fold change": -0.102}, {"sequence": "RRIRIRPPRLPRPRPRPYAGPRP", "shrunken log2 fold change": -0.417}, {"sequence": "RRIRIRPPRLPRPRPRPYCDPRP", "shrunken log2 fold change": -0.0269}, {"sequence": "RRIRIRPPRLPRPRPRPYDCPRP", "shrunken log2 fold change": 0.0019}, {"sequence": "RRIRIRPPRLPRPRPRPYDIPRP", "shrunken log2 fold change": -0.0903}, {"sequence": "RRIRIRPPRLPRPRPRPYFFPRP", "shrunken log2 fold change": -0.875}, {"sequence": "RRIRIRPPRLPRPRPRPYFWPRP", "shrunken log2 fold change": -0.388}, {"sequence": "RRIRIRPPRLPRPRPRPYGDPRP", "shrunken log2 fold change": 0.0112}, {"sequence": "RRIRIRPPRLPRPRPRPYHAPRP", "shrunken log2 fold change": -0.0781}, {"sequence": "RRIRIRPPRLPRPRPRPYHEPRP", "shrunken log2 fold change": -0.216}, {"sequence": "RRIRIRPPRLPRPRPRPYHFPRP", "shrunken log2 fold change": -0.248}, {"sequence": "RRIRIRPPRLPRPRPRPYHLPRP", "shrunken log2 fold change": -0.115}, {"sequence": "RRIRIRPPRLPRPRPRPYIHPRP", "shrunken log2 fold change": -1.3}, {"sequence": "RRIRIRPPRLPRPRPRPYIIPRP", "shrunken log2 fold change": -0.403}, {"sequence": "RRIRIRPPRLPRPRPRPYILPRP", "shrunken log2 fold change": -0.463}, {"sequence": "RRIRIRPPRLPRPRPRPYIRPRP", "shrunken log2 fold change": -0.159}, {"sequence": "RRIRIRPPRLPRPRPRPYLCPRP", "shrunken log2 fold change": -0.0937}, {"sequence": "RRIRIRPPRLPRPRPRPYLTPRP", "shrunken log2 fold change": -1.45}, {"sequence": "RRIRIRPPRLPRPRPRPYMMPRP", "shrunken log2 fold change": -1.26}, {"sequence": "RRIRIRPPRLPRPRPRPYMWPRP", "shrunken log2 fold change": -0.198}, {"sequence": "RRIRIRPPRLPRPRPRPYNIPRP", "shrunken log2 fold change": -0.257}, {"sequence": "RRIRIRPPRLPRPRPRPYNMPRP", "shrunken log2 fold change": -1.39}, {"sequence": "RRIRIRPPRLPRPRPRPYNPPRP", "shrunken log2 fold change": -0.276}, {"sequence": "RRIRIRPPRLPRPRPRPYPKPRP", "shrunken log2 fold change": -0.0684}, {"sequence": "RRIRIRPPRLPRPRPRPYRRPRP", "shrunken log2 fold change": -0.648}, {"sequence": "RRIRIRPPRLPRPRPRPYSKPRP", "shrunken log2 fold change": -1.2}, {"sequence": "RRIRIRPPRLPRPRPRPYTTPRP", "shrunken log2 fold change": -0.0313}, {"sequence": "RRIRIRPPRLPRPRPRPYVCPRP", "shrunken log2 fold change": 0.0199}, {"sequence": "RRIRIRPPRLPRPRPRPYVQPRP", "shrunken log2 fold change": -0.311}, {"sequence": "RRIRIRPPRLPRPRPRPYWRPRP", "shrunken log2 fold change": -0.478}, {"sequence": "RRIRIRPPRLPRPRPRPYWWPRP", "shrunken log2 fold change": -0.259}, {"sequence": "RRIRIRPPRLPRPRPRPYYCPRP", "shrunken log2 fold change": -0.529}]}]}
